Here are results for 27 molecules from patent US20260115250A1 (CHARACTER BIOSCIENCES, published 2026).

Numbering of substitutions follows the chain as printed. Some results are limits rather than exact numbers.

B1: T-115 (peptide)
peptide: DHINKVQRKVTHEIERLFLGQSTEELRVRLASHLRKLRKRLLRDADDLQKRLAVYQA
B2: T-068 (peptide)
peptide: MEDVRGRLVQYRGEVQAMLGQSTEELRVRLASHLRKLRKRLLRDADDLQKRLAVYQA
B3: T-069 (peptide)
peptide: VRGRLVQYRGEVQAMLGQSTEELRVRLASHLRKLRKRLLRDADDLQKRLAVYQA
B4: T-113 (peptide)
peptide: WKDFGERVERALREQFEDLGQSTEELRVRLASHLRKLRKRLLRDADDLQKRLAVYQA
B5: T-114 (peptide)
peptide: B4 peptide with W1L, E9A
B6: T-112 (peptide)
peptide: B4 peptide with W1Y, R13G, E14R, F16L, D18M
B7: T-116 (peptide)
peptide: DAWERFRALFKELADYFRLGQSTEELRVRLASHLRKLRKRLLRDADDLQKRLAVYQA
B8: T-117 (peptide)
peptide: RSGADALESALKELKRFIREWTLGQSTEELRVRLASHLRKLRKRLLRDADDLQKRLAVYQA

Chain of ABCA1, endogenous in J774 murine macrophage cells (P41233 whole entry): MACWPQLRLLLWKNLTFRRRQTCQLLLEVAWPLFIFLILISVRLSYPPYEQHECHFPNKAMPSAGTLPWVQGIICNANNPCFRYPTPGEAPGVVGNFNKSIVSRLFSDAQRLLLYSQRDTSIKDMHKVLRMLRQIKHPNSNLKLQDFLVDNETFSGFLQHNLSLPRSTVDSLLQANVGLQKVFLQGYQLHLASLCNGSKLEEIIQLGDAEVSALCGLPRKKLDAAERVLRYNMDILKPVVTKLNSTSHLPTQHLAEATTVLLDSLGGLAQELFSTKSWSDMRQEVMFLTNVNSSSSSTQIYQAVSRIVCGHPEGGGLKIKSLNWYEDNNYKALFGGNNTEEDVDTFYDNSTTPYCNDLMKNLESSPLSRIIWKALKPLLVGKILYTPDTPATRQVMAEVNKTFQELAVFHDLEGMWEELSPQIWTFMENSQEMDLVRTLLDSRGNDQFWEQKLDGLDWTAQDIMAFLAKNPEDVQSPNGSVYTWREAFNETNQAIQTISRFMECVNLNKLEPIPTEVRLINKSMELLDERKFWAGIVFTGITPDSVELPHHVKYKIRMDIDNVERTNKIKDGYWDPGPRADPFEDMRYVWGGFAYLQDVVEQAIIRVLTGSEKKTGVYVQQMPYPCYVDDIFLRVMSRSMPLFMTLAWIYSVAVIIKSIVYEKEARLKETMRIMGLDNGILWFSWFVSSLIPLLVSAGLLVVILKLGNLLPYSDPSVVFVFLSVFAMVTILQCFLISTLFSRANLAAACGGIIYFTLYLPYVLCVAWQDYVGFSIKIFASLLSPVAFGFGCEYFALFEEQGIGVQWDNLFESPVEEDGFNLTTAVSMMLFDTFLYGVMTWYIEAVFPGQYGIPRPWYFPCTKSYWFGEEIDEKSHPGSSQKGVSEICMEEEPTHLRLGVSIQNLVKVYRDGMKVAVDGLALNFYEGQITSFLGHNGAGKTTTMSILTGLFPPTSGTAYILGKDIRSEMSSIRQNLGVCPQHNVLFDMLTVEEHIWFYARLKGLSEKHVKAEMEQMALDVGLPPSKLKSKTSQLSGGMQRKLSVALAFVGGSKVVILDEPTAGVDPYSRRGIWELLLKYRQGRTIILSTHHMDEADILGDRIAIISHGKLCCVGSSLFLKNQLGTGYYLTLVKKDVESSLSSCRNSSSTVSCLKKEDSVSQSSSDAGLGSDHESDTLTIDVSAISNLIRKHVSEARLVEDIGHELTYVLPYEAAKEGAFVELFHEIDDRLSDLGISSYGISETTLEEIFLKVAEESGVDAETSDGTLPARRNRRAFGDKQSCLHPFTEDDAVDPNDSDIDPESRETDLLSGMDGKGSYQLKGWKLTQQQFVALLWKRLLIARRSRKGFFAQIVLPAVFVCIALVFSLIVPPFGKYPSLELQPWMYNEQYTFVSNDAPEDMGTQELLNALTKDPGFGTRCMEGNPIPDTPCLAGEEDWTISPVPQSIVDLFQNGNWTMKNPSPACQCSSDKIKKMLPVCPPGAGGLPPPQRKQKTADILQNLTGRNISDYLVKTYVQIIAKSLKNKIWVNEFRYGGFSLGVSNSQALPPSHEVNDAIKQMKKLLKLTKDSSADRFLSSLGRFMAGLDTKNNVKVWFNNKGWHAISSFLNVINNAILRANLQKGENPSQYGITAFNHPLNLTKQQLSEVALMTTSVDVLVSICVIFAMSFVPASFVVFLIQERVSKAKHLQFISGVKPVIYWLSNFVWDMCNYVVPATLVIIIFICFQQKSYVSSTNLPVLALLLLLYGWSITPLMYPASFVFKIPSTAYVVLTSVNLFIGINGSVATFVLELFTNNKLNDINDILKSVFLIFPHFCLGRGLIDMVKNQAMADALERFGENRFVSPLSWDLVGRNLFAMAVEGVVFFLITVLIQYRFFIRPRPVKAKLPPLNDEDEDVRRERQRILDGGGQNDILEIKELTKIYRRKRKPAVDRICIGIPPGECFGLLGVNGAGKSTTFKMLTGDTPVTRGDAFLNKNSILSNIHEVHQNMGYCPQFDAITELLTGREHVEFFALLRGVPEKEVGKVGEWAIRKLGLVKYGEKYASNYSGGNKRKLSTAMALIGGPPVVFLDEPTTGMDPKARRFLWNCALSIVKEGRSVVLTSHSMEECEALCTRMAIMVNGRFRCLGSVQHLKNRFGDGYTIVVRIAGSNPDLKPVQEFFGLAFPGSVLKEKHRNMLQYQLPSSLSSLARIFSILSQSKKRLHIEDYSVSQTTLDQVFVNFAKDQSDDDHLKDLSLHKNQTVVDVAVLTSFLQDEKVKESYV

One experiment has as its target ABCA1, endogenous in J774 murine macrophage cells (murine, UniProt P41233 1-2261). The experiment is described as follows: cell-based or functional assay.
Turning to DAWERFRALFKELADYFR [T-087], the “EC50, membrane ABCA1 stability in J774 cells (western blot of membrane ABCA1 after 8-Br-cAMP washout)” value amounted to 1.51 µM. Regarding RSGADALESALKELKRFIREWT [T-101], the “EC50, membrane ABCA1 stability in J774 cells (western blot of membrane ABCA1 after 8-Br-cAMP washout)” value came to 3.7 µM.

The target in another experiment is ATP binding cassette subfamily A member 1 (ABCA1), endogenous in ARPE-19 cells (human, UniProt O95477 1-2261). The experiment in a line: cell-based or functional assay.
Chain of ATP binding cassette subfamily A member 1 (ABCA1), endogenous in ARPE-19 cells (O95477 whole entry): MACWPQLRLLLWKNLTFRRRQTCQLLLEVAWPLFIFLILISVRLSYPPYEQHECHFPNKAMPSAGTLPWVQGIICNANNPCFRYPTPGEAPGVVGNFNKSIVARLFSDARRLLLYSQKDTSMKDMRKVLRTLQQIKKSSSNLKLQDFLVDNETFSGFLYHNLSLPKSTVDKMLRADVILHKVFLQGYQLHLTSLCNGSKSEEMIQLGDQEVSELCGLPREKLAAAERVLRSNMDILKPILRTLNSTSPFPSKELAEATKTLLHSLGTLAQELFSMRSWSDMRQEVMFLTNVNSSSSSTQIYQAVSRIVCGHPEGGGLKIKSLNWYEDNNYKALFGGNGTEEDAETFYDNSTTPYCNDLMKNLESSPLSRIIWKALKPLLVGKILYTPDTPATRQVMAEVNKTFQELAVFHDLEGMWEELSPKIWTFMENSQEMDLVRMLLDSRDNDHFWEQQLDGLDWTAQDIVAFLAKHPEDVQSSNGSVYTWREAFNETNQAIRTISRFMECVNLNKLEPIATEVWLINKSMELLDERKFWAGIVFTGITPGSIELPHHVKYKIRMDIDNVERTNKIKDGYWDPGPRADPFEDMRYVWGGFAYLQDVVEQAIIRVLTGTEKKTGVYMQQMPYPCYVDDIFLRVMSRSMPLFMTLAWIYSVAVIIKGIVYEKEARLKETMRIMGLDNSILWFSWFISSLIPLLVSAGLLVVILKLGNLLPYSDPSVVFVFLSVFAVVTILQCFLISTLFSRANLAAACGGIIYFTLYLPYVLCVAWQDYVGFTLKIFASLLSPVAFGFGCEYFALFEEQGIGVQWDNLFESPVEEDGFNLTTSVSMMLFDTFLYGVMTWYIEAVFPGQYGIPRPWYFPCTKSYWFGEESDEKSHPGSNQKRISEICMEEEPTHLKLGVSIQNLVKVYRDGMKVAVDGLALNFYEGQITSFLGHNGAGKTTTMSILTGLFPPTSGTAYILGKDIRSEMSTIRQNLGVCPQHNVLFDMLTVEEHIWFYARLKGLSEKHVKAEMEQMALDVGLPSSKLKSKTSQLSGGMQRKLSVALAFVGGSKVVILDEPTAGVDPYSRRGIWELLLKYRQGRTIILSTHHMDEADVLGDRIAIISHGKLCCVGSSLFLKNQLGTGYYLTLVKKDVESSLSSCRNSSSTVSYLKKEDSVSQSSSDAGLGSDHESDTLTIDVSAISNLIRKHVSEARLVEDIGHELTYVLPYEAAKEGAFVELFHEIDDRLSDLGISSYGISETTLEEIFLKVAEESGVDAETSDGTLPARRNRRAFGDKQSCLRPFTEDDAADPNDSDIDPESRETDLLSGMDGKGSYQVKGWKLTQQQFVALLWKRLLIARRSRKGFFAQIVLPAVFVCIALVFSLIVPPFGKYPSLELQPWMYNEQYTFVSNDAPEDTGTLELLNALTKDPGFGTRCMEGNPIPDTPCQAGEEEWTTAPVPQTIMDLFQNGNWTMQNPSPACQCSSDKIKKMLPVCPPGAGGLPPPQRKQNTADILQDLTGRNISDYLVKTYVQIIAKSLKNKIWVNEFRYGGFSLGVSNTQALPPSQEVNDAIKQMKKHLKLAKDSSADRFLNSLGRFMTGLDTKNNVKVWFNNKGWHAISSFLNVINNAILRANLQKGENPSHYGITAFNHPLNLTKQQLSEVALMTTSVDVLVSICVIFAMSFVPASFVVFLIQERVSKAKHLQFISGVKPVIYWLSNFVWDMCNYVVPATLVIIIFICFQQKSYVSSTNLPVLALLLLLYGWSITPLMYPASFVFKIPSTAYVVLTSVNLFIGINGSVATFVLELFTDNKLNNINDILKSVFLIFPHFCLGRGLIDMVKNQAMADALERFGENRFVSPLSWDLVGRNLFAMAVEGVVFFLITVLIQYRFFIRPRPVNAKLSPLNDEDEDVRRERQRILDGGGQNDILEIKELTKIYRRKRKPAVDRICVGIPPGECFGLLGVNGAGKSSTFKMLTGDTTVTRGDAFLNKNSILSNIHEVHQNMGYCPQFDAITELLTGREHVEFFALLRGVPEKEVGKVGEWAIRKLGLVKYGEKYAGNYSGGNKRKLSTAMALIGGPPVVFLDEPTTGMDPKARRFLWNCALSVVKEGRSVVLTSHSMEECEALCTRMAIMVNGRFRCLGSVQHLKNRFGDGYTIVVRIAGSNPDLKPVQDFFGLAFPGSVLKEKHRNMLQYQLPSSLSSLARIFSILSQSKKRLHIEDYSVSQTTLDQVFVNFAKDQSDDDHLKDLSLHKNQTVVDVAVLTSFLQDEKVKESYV
Turning to DAWERFRALFKELADYFR [T-087], the “EC50, membrane ABCA1 stability in ARPE-19 cells treated with mCRP (western blot)” value is 4.6 µM. Take RSGADALESALKELKRFIREWT [T-101]: the “EC50, membrane ABCA1 stability in ARPE-19 cells treated with mCRP (western blot)” value came out at 3.5 µM.

A further experiment addresses T1, Low Density Lipoprotein Receptor (LDLR), recombinant (UniProt P01130 22-788, limits assumed).
T1 construct: also called Recombinant LDLR
The experiment is described as follows: SPR multi-cycle kinetics, immobilized LDLR, high surfactant preparation (HBS-P+), 1:1 model. The method, then: The table shown in FIG. 23 illustrates LDLR binding data (SPR), using a high surfactant preparation. Recombinant LDLR was diluted in 10 mM acetate buffer pH 4.5 and amine coupled to a CM5 chip at 1000 RU. Peptides were diluted to 5 μM in running buffer (HBS-P+, 1 mM CaCl2) and serially diluted 1:3 for 5 total concentrations. […] Between cycles, the chip surface was regenerated with 3 injections of 50 mM NaOH/100 mM EDTA. Multi-Cycle Kinetics was performed on a Biacore Insight Evaluation Software and binding kinetics were analyzed with a 1:1 binding model.
By Kd is commonly meant the equilibrium constant for the complex coming apart. On to B1, for which the Kd is below 10 µM. As to B2, the Kd is below 10 µM. With B3, the Kd was below 10 µM. Consider LASHLRKLRKRLLRDADDLQKRLAVYQAGAREGAER [T-046], for which the Kd is below 10 µM. In the case of LARHLRKLRKRLARDADDLQKRLAVYQAGAREGAER [T-047], the Kd was below 10 µM. As for B4, the Kd was below 10 µM. Take B5: the Kd was below 10 µM. For the molecule B6, the Kd is below 10 µM. With LASHLRKLRKRLLRSLVSQYFQTVTDYGKDLM [T-065], the Kd is below 10 µM. For the molecule LARHLRKLRKRLARSLVSQYFQTVTDYGKDLM [T-066], the Kd is below 10 µM. On to B7, for which the Kd was below 10 µM.

Take HLRKLRKRLLRSLVSQYRQTVTDYGKDL [T-110]: the Kd is below 10 µM. The same measure, in the same setting: the figure for HLRKLVKRLLRSLVSQYRQTVTDYGEDL [T-111] is below 10 µM. Regarding HLRKLRKRLLRSLVSQYFQTVTDYGKDL [T-109], the Kd was below 10 µM. HLRKLRKRLLRDGDKLQDRLAEYQARAKEAFDR [T-040]: the Kd is below 10 µM. Turning to HLRKLRKRLLRDGDKLQDRLAEYQARAREAFDR [T-055], the Kd is below 10 µM.

With HLRKLRKRLLRDGDKLQKRLAEYQARAKEAFDR [T-052], the Kd is below 10 µM. Consider HLRKLRKRLLRDADDLQKRLAEYQARAKEAFDR [T-064], for which the dissociation constant Kd is below 10 µM. As to HLRKLVKRLFRDGDKLQDRLAEYQARAKEAFDR [T-059], the equilibrium dissociation constant (Kd) is below 10 µM. With HLRRLRRRLLRDGDKLQDRLAEYQARAKEAFDR [T-041], the Kd was below 10 µM.

HLRKLRKRLLRDGDKLYDRLAEYYARAKEAFDR [T-062]: the Kd is below 10 µM. Regarding LASHLRKLRKRLLRDGDKLQDRLAEYQARAKEAFDR [T-048], the Kd is below 10 µM.

With LARHLRKLRKRLARDGDKLQDRLAEYQARAKEAFDR [T-049], the Kd was below 10 µM.

The target in the next experiment is T1, Low Density Lipoprotein Receptor …. The experiment in a line: SPR multi-cycle kinetics, immobilized LDLR, low-surfactant preparation (HBS-P), peptide:DMPC complex against peptide alone. The procedure:
Recombinant LDLR was diluted in 10 mM acetate buffer pH 4.5 and amine coupled to a CM5 chip at 1000 RU. Peptides were diluted to 5 μM in running buffer (HBS-P, 1 mM CaCl2) and serially diluted 1:3 for 5 total concentrations. In a separate preparation, peptides were diluted to 1 μM in running buffer containing 25 μM DMPC and serially diluted 1:3 for 5 total concentrations in running buffer. Peptide: DMPC complexes were incubated for 1 hour prior to use. […] Between cycles, the chip surface was regenerated with 3 injections of 50 mM NaOH/100 mM EDTA. Multi-Cycle Kinetics was performed on a Biacore Insight Evaluation Software and binding kinetics were analyzed with a 1:1 binding model.
As for B1, the “change in LDLR binding in the presence of DMPC lipid” value (shortened to “change in LDLR binding”) is above 2 fold.

For B2, the “change in LDLR binding” value was above 2 fold. Regarding LVQYRGEVQAMLGQSTEELRVRLASHLRKLRKRLLRDADDLQKRLAVYQA [T-070], the “change in LDLR binding” value was above 2 fold.

Take B4: the “change in LDLR binding” value is above 2 fold. On to B5, for which the “change in LDLR binding” value is above 2 fold. For the molecule B6, the “change in LDLR binding” value was above 2 fold. Still for that read-out and setting: the figure for LASHLRKLRKRLLRSLVSQYFQTVTDYGKDLM [T-065] is above 2 fold. Consider LARHLRKLRKRLARSLVSQYFQTVTDYGKDLM [T-066], for which the “change in LDLR binding” value was above 2 fold. Consider B7, for which the “change in LDLR binding” value is above 2 fold. Take HLRKLRKRLLRSLVSQYRQTVTDYGKDL [T-110]: the “change in LDLR binding” value was above 2 fold. Consider HLRKLVKRLLRSLVSQYRQTVTDYGEDL [T-111], for which the “change in LDLR binding” value is above 2 fold. Still for that read-out and setting: the figure for HLRKLRKRLLRSLVSQYFQTVTDYGKDL [T-109] is above 2 fold. Still for that read-out and setting: the figure for B8 is above 2 fold.
